Square brackets hold non-standard residues; d marks the D form. Ends that are not written are not given here. Hyp = O=C(O)[C@@H]1C[C@@H](O)CN1
Biological target: T1, human bradykinin B2 receptor (human, UniProt P30411 1-391)
T1 sequence (looked up): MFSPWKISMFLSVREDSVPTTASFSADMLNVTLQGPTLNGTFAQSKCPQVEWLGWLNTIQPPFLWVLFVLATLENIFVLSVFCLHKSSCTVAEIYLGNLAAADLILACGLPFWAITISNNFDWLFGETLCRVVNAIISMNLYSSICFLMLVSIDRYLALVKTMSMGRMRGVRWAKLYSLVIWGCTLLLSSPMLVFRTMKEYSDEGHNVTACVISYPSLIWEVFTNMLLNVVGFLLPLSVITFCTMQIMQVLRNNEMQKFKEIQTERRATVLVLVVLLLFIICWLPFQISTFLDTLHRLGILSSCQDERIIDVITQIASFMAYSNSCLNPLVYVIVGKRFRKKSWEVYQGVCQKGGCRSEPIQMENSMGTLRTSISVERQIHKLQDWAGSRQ
Experiment: cell-based or functional assay

Row | Binder | [Ca^2+]i mobilization, Agonist Potency (EC50), h-CM cells | [Ca^2+]i mobilization, Agonist Potency (EC50), h-NPE cells | [Ca^2+]i mobilization, Agonist Potency (EC50), h-TM cells
1 | MKRPPGFSPFR [Met-Lys-BK] | 16.1 nM | 125 nM | 6.5 nM
2 | RP[Hyp]GFSPFR [Hyp^3-BK] |  | 6 nM | 0.9 nM
3 | KRPPGFSPFR [Lys-BK] | 3.2 nM | 19.6 nM | 1.9 nM
